The target in assay [1] is truncated KDM2A construct (36–517) lacking the 1–35 and 365–449 peptide segments (UniProt Q9Y2K7).
The next assay concerns the target T1, KDM2A K323A/F324A (UniProt Q9Y2K7 1-1162, K323A | F324A).
T1 sequence (looked up): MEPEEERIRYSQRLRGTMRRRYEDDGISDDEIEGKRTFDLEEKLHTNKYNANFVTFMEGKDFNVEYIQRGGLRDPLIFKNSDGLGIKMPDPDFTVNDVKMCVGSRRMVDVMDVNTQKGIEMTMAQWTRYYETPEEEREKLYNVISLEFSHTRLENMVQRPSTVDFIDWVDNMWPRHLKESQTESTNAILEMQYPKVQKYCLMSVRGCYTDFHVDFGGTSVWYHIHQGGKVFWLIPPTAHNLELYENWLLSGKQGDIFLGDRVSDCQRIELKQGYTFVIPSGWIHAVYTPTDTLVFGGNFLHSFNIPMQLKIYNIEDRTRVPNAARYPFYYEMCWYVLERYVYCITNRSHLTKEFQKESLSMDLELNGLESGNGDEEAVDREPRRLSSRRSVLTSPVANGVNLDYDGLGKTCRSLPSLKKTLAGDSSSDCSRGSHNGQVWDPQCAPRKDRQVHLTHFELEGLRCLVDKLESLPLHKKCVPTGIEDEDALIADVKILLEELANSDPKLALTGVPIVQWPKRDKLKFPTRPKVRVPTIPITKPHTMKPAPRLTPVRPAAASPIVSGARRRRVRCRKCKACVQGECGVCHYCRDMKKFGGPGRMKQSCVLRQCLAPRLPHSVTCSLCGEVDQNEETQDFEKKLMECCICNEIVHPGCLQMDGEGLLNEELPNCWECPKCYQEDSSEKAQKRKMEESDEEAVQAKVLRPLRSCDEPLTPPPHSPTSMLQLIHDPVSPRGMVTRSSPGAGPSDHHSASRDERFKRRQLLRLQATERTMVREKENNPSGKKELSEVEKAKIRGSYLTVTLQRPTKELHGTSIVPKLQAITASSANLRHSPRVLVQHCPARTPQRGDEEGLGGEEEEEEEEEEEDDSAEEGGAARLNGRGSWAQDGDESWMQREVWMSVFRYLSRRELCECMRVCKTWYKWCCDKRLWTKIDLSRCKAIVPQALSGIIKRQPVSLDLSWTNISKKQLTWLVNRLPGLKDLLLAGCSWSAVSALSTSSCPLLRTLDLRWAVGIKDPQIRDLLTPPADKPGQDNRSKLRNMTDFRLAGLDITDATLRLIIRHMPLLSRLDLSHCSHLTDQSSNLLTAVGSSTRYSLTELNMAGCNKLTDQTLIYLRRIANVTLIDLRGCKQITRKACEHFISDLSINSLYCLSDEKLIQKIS
The assay is described as follows: cell-based or functional assay.

Another assay addresses T2, KDM2A N186A (UniProt Q9Y2K7 1-1162, N186A).
T2 sequence (looked up): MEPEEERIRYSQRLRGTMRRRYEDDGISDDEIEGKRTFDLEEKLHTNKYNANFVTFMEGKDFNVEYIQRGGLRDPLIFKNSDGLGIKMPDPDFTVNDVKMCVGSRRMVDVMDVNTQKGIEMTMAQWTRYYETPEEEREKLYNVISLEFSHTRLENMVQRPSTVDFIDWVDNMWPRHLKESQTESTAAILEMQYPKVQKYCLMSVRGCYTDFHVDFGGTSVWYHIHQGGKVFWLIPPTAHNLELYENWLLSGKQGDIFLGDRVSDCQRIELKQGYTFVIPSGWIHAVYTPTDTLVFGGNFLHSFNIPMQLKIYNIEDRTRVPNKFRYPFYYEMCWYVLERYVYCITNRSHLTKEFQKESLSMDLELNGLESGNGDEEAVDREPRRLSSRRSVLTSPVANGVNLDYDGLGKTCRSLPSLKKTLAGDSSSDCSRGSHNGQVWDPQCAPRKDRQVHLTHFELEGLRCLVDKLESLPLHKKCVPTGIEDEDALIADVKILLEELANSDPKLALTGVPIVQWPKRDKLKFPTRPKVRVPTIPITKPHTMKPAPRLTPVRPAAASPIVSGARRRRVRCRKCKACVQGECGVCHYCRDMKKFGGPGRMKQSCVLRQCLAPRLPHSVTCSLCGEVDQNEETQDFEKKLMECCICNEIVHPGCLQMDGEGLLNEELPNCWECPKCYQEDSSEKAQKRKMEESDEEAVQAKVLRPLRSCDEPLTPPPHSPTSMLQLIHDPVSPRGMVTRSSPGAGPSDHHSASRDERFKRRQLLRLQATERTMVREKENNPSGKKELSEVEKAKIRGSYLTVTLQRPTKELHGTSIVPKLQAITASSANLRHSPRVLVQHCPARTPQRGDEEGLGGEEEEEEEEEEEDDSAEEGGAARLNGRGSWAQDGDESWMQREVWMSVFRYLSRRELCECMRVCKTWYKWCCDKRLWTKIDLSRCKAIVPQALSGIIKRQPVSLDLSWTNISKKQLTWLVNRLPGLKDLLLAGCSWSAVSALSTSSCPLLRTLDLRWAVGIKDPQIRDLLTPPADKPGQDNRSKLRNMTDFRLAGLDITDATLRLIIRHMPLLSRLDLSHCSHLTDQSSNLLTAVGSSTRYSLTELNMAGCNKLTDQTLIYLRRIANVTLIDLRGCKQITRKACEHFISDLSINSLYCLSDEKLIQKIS
The assay is described as follows: cell-based or functional assay.

Ends that are not written are not given here. Me2 = dimethyl (dimethyl-lysine)

Take H3K36me2 peptide Y41A: in assay [1], the demethylation of the mutant H3K36me2 peptide by wild-type KDM2A in vitro was < 2 fold.

Turning to APATGGVK(Me2)KPHRY [H3(A29–Y41)K36me2 peptide], the “H3K36me2 demethylation activity in vitro, fluorescence-based assay” value with KDM2A K323A/F324A and with KDM2A N186A was ~3 fold reduction each time.

The record behind these values is paper PMC4197961 (Genes & Development, 2014).
